According to the RNAGym collection of RNA variant scans (doi:10.1073/pnas.2313332121):
Fewer inactive variants are shown than the library holds.

B1: TPR 5TU (parent)
chain: GGAUCUUCUCGAUCUAACAAAAAAGACAAAUCUGCCACAAAGCUUGAGAGCAUCUUCGGAUGCAGAGGCGGCAGCCUUCGGUGGCGCGAUAGCGCCAACGUUCUCAACUAUGACACGCAAAACGCGUGCUCCGUUGAAUGGAGUUUAUCAUG

Variants of: B1
Experiment: polymerase ribozyme fitness, log enrichment relative to wild type (log ratio); higher = more active; in vitro selection for triplet polymerase activity
Procedure, shortened: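 One round of in vitro selection, in triplicate, was applied to PCR-built, transcribed mutant libraries of each subunit of a heterodimeric triplet polymerase ribozyme. The steps were annealing with a biotinylated primer, partner subunit and triplets, incubation frozen at −7 °C, gel excision of extended constructs, streptavidin-bead capture and RT-PCR. Fitness is the logarithm, base 2, of genotype enrichment over wild-type enrichment from inverse-variance-weighted replicate averages of Illumina-sequenced inputs and outputs, keeping genotypes with ≥10 input reads and ≥1 read per output.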

| Variant | polymerase ribozyme fitness (log ratio) |
| --- | --- |
| C57G C96A | -0.472 |
| A39G U55A G71A G92C C96U C131U C149A | ≤ -4.2 |
| A73U C85U G117U | -0.841 |
| A21U C54U U146A | -0.081 |
| U56A G59C U144G | 2.23 |
| G67C G84A C99U C105A A115C A137C G141A | ≤ -4.2 |
| A3U C8U C96U | -1.89 |
| A20C U56A A107U | -2.71 |
| U15C C54A G62A U78A G88C A113C A150U | ≤ -4.2 |
| C5G C35U G50A U55A C57A A66C C87A U134C | ≤ -4.2 |
| A20U A41U U55A A66U G84A C116A | ≤ -4.2 |
| C54G C85U C99G | -3.45 |
| C54U U56A C118U | -0.674 |
| A40C G141A | 0.793 |
| U31A U56A U127C | -1.37 |
| C85G C99U G112U C118U | ≤ -4.2 |
| C27U C76A | -2.31 |
| C54A U55G G83A U102C C108G G126A | ≤ -4.2 |
| C32G A91C U139G | ≤ -4.2 |
| C35U G50U G59C A60U C85A G94C G141A | ≤ -4.2 |
| G25C C54A C105U | -3.21 |

| Variant | polymerase ribozyme fitness (log ratio) |
| --- | --- |
| C32A A47U C87U | ≤ -4.2 |
| C85G U90A C114A | ≤ -4.2 |
| A29G C93G A115U C116G C149G | ≤ -4.2 |
| G92U U104G | -0.858 |
| C69A C79A A115U C118A | ≤ -4.2 |
| U6G C8G A47C G59U A91C C96G C132G G133A | ≤ -4.2 |
| A22G A52U G84A C123A | -2.11 |
| A47C A91C G112C G133C C149U | ≤ -4.2 |
| A60U G143A | -1.07 |
| C14U A28U C51G A97G | ≤ -4.2 |
| C69A G83A G143U | -3.59 |
| A3U C5A A30U A39U A49U C99U G124A | ≤ -4.2 |
| U9C U56A G83A C87U | ≤ -4.2 |
| U7G G25C A60G C93U C123U | ≤ -4.2 |
| C54A C79A C87U U144C A150G U151A | ≤ -4.2 |
| C8U A12G A28C C38U C57G C95U | ≤ -4.2 |
| U61C A73U A91U | ≤ -4.2 |
| A39G U134G | -3.86 |
| A21U C96A | -0.443 |
| G83A A91G C93U C149A | ≤ -4.2 |
| A37G U45A C76G U82G C93G A113C G136U | ≤ -4.2 |

| Variant | polymerase ribozyme fitness (log ratio) |
| --- | --- |
| A26U A49G C57A G88U G92A G100A A106U C125U | ≤ -4.2 |
| U55G G62A C116G | -1.02 |
| G46A C69A | -3.61 |
| C10G A28G U82G G94C C95A G140A | ≤ -4.2 |
| U15G A26G A52U U53A G65A G80U C87G C96G A97G C108G | ≤ -4.2 |
| A3G A91U | ≤ -4.2 |
| C18U U55A C93A G128A G136A | ≤ -4.2 |
| C36A A122U G126A G136C | ≤ -4.2 |
| C32A U45A A60G C75U G81A U90G C116A | ≤ -4.2 |
| U13A C32G A37U A52G G94A G128A U146G | ≤ -4.2 |
| A39U A66C G68A C108U A121U U134A G143U | ≤ -4.2 |
| C38A A47C C96A | -1.63 |
| U7G C63A C96G | ≤ -4.2 |
| A28C | -3.75 |
| A26U G46U A47U G74C C79G G92U G140A | ≤ -4.2 |
| C96U A110U | -3.6 |
| A40G G42U G74C | ≤ -4.2 |
| A23C C27G U61A U77A A91U G136C | ≤ -4.2 |
| C18U C36A | -4.01 |
| A29G G48A C75U | ≤ -4.2 |
| A22G U55A A89C | -0.257 |

| Variant | polymerase ribozyme fitness (log ratio) |
| --- | --- |
| U56A U134A G143C | -4.04 |
| G86C C96U | -2.67 |
| C85U C95U G133A | -4 |
| A17U A47C C51G U61A G83A | ≤ -4.2 |
| G83C A106G | -0.352 |
| A23U A30G G42U A52U U56A C72G C95G C114G U139A | ≤ -4.2 |
| C54U A106G | -0.0717 |
| A21C C57G G81A A115C | -1.84 |
| C87U A115U G140U | -4.19 |
| A21U A23G | -2.94 |
| U9A C36A C72G G92A C129A A137U | ≤ -4.2 |
| G42A G59U C76U G88U C103G G152U | ≤ -4.2 |
| C18U A60G U82A G141C | -0.334 |
| A21C U33A G50A G62A U90C C95A | ≤ -4.2 |
| C18G G84U | -1.93 |
| A40G A41U A49U G58C G74U C85A U139G G141C U148C | ≤ -4.2 |
| G59C U82G C85A U102G | -4.09 |
| G88A U127G C129U | ≤ -4.2 |
| A19U A47G U53G G67C C99U A142C A147C | ≤ -4.2 |
| C75U C96G | 0.716 |
| C32G C51U G94U | ≤ -4.2 |
